Measurements as given in US12251427B2, “Reduced oxygen carriers and their use for the treatment of carboxyhemoglobinemia” (priority 2016, dated 2025).

Assays:
[1] = LD50 dose in mice (calculated); conditions: mice of approximately 25 g
[2] = rats; cited from earlier work
[3] = cited from earlier work
[4] = test system: HbCO; experiment: HbCO removal in CO poisoned mice (1500 ppm CO, moderate CO poisoning model); assay type: in vivo; conditions: after 5 minutes of return to normal air, 250 μL of 8-12 mM infused
Procedure: FIG. 1 is a graph showing the in vivo binding of CO from hemoglobin by recombinant neuroglobin in a mouse model for moderate CO poisoning.
(§1) It was previously shown that exposure of mice to air with 1500 ppm CO gas for an average of 50 minutes caused HbCO levels to increase to 64%+/−1% (PCT Publication No. WO 2014/150413). Prior to exposure, mice were surgically instrumented with placement of femoral artery and vein catheters for blood pressure monitoring, blood sampling and infusions of either recombinant neuroglobin (rNgb), another type of CO scavenging globin protein, or PBS as a control. Mice were infused with 250 μL of 8-12 mM rNgb or PBS within 4 minutes using a Harvard infusion pump. Immediately after infusion and every 5 minutes, 5 μL of blood was collected for measurement of HbCO. […] In particular, after 5 minutes of return to normal air, the HbCO levels dropped by an average of 32.8% in the group that received rNgb versus 13.3% in the group that received PBS (FIG. 1).

[5] = rNgb found in urinary bladder after infusion; assay type: in vivo; conditions: after 60 minutes, mice sacrificed
Procedure: as §1

[6] = test system: HbCO; experiment: In vitro model of CO poisoning: CO scavenging from HbCO / carboxylated RBCs; assay type: biochemical
Procedure: FIGS. 4A-4C are graphs showing the in vitro binding of CO from hemoglobin by wild type equine myoglobin. PBS or myoglobin (100 μL) was infused into a solution containing carboxylated red blood cells in the presence of 5 mM sodium dithionite at 37° C. Samples were taken from the reaction mixture at several time points and the RBCs were separated from the supernatant (containing the Mb) by centrifugation. The amount of HbCO/MbCO in each fraction was determined by UV-vis spectroscopy. (FIG. 4A) Carboxylated RBCs mixed with PBS. (FIG. 4B and FIG. 4C) Two sample experiments where different amounts of carboxylated RBCs were mixed with Mb. […]
Oxygenated or deoxygenated myoglobin (Mb) was prepared following the same procedure as that described for the experiments with pure Hb. In some experiments, after initiating the reaction, red cells were separated from Mb to measure absorbance spectra. […] Hb absorbance in the lysed RBC solution was measured with the Cary 50 spectrophotometer in a 1 cm path length cuvette. This cycle was repeated six times, each 1.5-5 minutes, giving six absorbance measurements of the Hb. […] The time when absorbance of hemoglobin was measured in the reaction was assumed to be the time elapsed after injection of Mb to 15 or 30 seconds after the start of centrifugation (for 30 or 60 second centrifugation durations, respectively). […]

[7] = test system: mice exposed to 30,000 ppm (3%) CO gas; experiment: Severe CO poisoning mouse model: survival and hemodynamics; assay type: in vivo; conditions: for effect on hemodynamic collapse (heart rate, mean arterial blood pressure) induced by CO: infusion after 4.5 minutes of 3% CO; for mortality: 3% CO 4.5 minutes
Procedure: To establish a model for cardiovascular and mortality end points, tracheally intubated, ventilated, anesthetized mice were exposed to 30,000 ppm (3%) CO gas, with 21% oxygen and 1.5% isoflurane for 4.5 minutes. Mice were surgically instrumented with placement of jugular venous (for infusion of drug) and carotid arterial (for blood pressure and heart rate monitoring) catheters. In this model, there was 88.2% (15/17) mortality in a group infused with 300 μL of PBS post exposure, while all mice that received an infusion of 11 mM myoglobin survived (0% mortality; n=5). Survival of mice infused with myoglobin was due to the reversal in hemodynamic collapse and bradycardia induced by CO (FIG. 5).
(§2) Tracheally intubated, ventilated, anesthetized mice were exposed to 30,000 ppm (3%) CO gas, with 21% oxygen and 1.5% isoflurane for 4.5 minutes. Mice were surgically instrumented with placement of jugular venous (for infusion of drug) and carotid arterial (for blood pressure and heart rate monitoring) catheters. In this model, all mice that received PEG-Hb (n=3) survived. The concentration infused was 10 mM at approximately 200 to 250 microliters volume.

[8] = test system: HbCO; experiment: Severe CO poisoning mouse model: HbCO level by spectrometry; assay type: in vivo, mice; conditions: Example 4
Procedure: To establish a model for cardiovascular and mortality end points, tracheally intubated, ventilated, anesthetized mice were exposed to 30,000 ppm (3%) CO gas, with 21% oxygen and 1.5% isoflurane for 4.5 minutes. Mice were surgically instrumented with placement of jugular venous (for infusion of drug) and carotid arterial (for blood pressure and heart rate monitoring) catheters.
(§3) Through the jugular venous catheter, the HbCO level was sampled using spectrometry. […] Mouse half-life for CO is much faster than for humans.
as §2, with “In this model, all mice that received PEG-Hb (n=3) survived.” left out
as §3

[9] = Safety of oxygen carriers in healthy mice; assay type: in vivo
Procedure: Healthy mice were anesthetized with 3% isoflurane gas and myoglobin and hemoglobin were injected into the retro-orbital space. […] At 48 hours, the animals were sacrificed, their serum was analyzed for blood chemistries and whole blood was tested for complete blood count.

[10] = test system: LV homogenate; experiment: Cardiac tissue respiration, Clark-type oxygen electrode, LV homogenate; parameters: species or system rat; conditions: 0.5 equimolar, after CO gas
Procedure: Mitochondrial respiration was measured before and after CO gas exposure in a Clark-type oxygen electrode respirometry system. The effects of infusion of both reduced hemoglobin and myoglobin were evaluated. Fresh liver was collected from a normal rat, and mitochondria were isolated through differential centrifugation. For left ventricle (LV) tissue, fresh LV was collected from a normal rat and then homogenized. The resulting mitochondria and LV tissue was put into the Clark-type electrode air tight reaction chamber, then substrates (succinate (mitochondria) or malate and pyruvate (LV) and ADP) were added. Mitochondria respired to 0% oxygen and then the system was reoxygenated with a pipetted injection of room air. Mitochondria respired back down to the desired 02 concentration. […]
CO poisoning has long term effects on patients, and one theory is the poisoning of mitochondria leads to generation of increased reactive oxygen species (ROS) through the inhibition of complex IV of the electron transport chain. A model to measure the amount of inhibition produced by CO exposure and quantify it through respiratory rates was developed. In a Clark electrode, the oxygen respiration of isolated mitochondria from rat livers and left ventricle (LV) homogenate was measured, with the addition of the substrates succinate and ADP to measure maximal respiration. […]

[11] = cited from earlier work; remark: listed apart in the source

O=S([O-])S(=O)[O-].[Na+].[Na+] [Dithionite, sodium dithionite]
LD50 dose in mice [1]: about 62.5 mg
LD50 [2]: 2500 mg/kg body weight
predicted human LD50 [3]: 500 mg/kg

B1: rNgb: recombinant neuroglobin, another type of CO scavenging globin protein (protein, UniProt Q9NPG2 1-151, looked up)
Neuroglobin: MERPEPELIRQSWRAVSRSPLEHGTVLFARLFALEPDLLPLFQYNCRQFSSPEDCLSSPEFLDHIRKVMLVIDAAVTNVEDLSSLEEYLASLGRKHRAVGVKLSSFSTVGESLLYMLEKCLGPAFTPATRAAWSQLYGAVVQAMSRGWDGE
drop of HbCO levels [4]: 32.8%
rNgb in urinary bladder [5]: millimolar concentrations

B2: Equine Myoglobin: wild type equine myoglobin, natural oxygen carrier, used in reduced (deoxy) form as CO scavenger (protein, UniProt P68082 2-154, looked up)
Myoglobin: GLSDGEWQQVLNVWGKVEADIAGHGQEVLIRLFTGHPETLEKFDKFKHLKTEAEMKASEDLKKHGTVVLTALGGILKKKGHHEAELKPLAQSHATKHKIPIKYLEFISDAIIHVLHSKHPGDFGADAQGAMTKALELFRNDIAAKYKELGFQG
modifications: deoxy form
notes: wild type equine myoglobin, natural oxygen carrier, used in reduced (deoxy) form as CO scavenger
HbCO reduced, CO bound by myoglobin ([6]; 100% HbCO, anaerobic, added in a 1:1 ratio): more than half
HbCO concentration reduced ([6]; added in deficit: 110.8 μM HbCO versus 85.3 μM deoxy-myoglobin): one third
survival ([7]; concentration greater than 11 mM, n=10): 100%
survival ([7]; concentrations less than 11 mM, n=4): 0%
concentration needed to reverse the hemodynamic collapse induced by severe CO poisoning ([7]; infused concentration): greater than 11 mM
effect on hemodynamic collapse (heart rate, mean arterial blood pressure) induced by CO [7]: reversal
effect on hemodynamic collapse (heart rate, mean arterial blood pressure) induced by CO ([7]; listed as reduced myoglobin): restoration
mortality ([7]; infusion of 11 mM, n=5): 0%
mortality ([7]; infusion of 300 μL of 11.5 mM reduced form): 0%
HbCO level ([8]; five minutes after infusion): 65.04%
HbCO level ([8]; ten minutes after treatment): 52.8%
tolerability of infusion ([9]; retro-orbital injection, 8-12 mM, observed for 48 hours): well tolerated
blood chemistries ([9]; serum at 48 hours): normal kidney and liver function
hematology profile ([9]; whole blood at 48 hours): only a slight decline in platelets
increase of respiration from the CO inhibited rate [10]: 199%
affinity for CO relative to oxygen ([11]; CO versus O2): 60 fold
Kd ([11]; CO): 68.8 nM
kon ([11]; rate of CO binding): 510000 M⁻¹ s⁻¹
koff ([11]; rate of CO dissociation): 0.035 s⁻¹
